Measurements taken from patent US20100310640A1.

Tests used:
Conditions in all cases: remark: other sources report otherwise
HLA-DR DRB1*0101 (human) [1] = target: T1, HLA-DR DRB1*0101 (human); test: radioligand competition, purified HLA-DR
T1 chain 1: not shown
T1 chain 2: not shown

HLA-DR DRB1*0802 (human) = target: T2, HLA-DR DRB1*0802 (human); test: radioligand competition, purified HLA-DR
T2 chain 1: not shown
T2 chain 2: not shown

HLA-DR DRB1*1302 (human) = target: T3, HLA-DR DRB1*1302 (human); test: radioligand competition, purified HLA-DR
T3 chain 1: not shown
T3 chain 2: not shown

HLA-DR DRB4*0101 (human) [2] = target: T4, HLA-DR DRB4*0101 (human); test: radioligand competition, purified HLA-DR
T4 chain 1: not shown
T4 chain 2: not shown

HLA-DR DRB1*0101 (human) [3] = target: T1, HLA-DR DRB1*0101 (human); test: radioligand inhibition, purified HLA-DR
HLA-DR DRB1*0404 (human) [4] = target: T5, HLA-DR DRB1*0404 (human); test: radioligand inhibition, purified HLA-DR
T5 chain 1: not shown
T5 chain 2: not shown

HLA-DR DRB1*1201 (human) [5] = target: T6, HLA-DR DRB1*1201 (human); test: radioligand inhibition, purified HLA-DR
T6 chain 1: not shown
T6 chain 2: not shown

HLA-DR DRB3*0101 (human) = test: radioligand inhibition, purified HLA-DR
HLA-DR DRB4*0101 (human) [6] = target: T4, HLA-DR DRB4*0101 (human); test: radioligand inhibition, purified HLA-DR
HLA-DR DRB1*0404 (human) [7] = target: T5, HLA-DR DRB1*0404 (human); test: radioligand competition, purified HLA-DR
HLA-DR DRB1*0701 (human) = target: T7, HLA-DR DRB1*0701 (human); test: radioligand competition, purified HLA-DR
T7 chain 1: not shown
T7 chain 2: not shown

HLA-DR DRB1*1101 (human) = target: T8, HLA-DR DRB1*1101 (human); test: radioligand competition, purified HLA-DR
T8 chain 1: not shown
T8 chain 2: not shown

HLA-DR DRB1*1201 (human) [8] = target: T6, HLA-DR DRB1*1201 (human); test: radioligand competition, purified HLA-DR
HLA-DR DRB5*0101 (human) = target: T9, HLA-DR DRB5*0101 (human); test: radioligand competition, purified HLA-DR
T9 chain 1: not shown
T9 chain 2: not shown

HLA-DR DRB1*0301 (human) = target: T10, HLA-DR DRB1*0301 (human); test: radioligand competition, purified HLA-DR
T10 chain 1: not shown
T10 chain 2: not shown

HLA-DR DRB1*0405 (human) = target: T11, HLA-DR DRB1*0405 (human); test: radioligand competition, purified HLA-DR
T11 chain 1: not shown
T11 chain 2: not shown

[9] = target: T12, HLA-DR molecule DRB1*0401 (human); test: radioligand inhibition, purified HLA-DR
T12 chain 1: not shown
T12 chain 2: not shown

[10] = target: T13, HLA-DR molecule DRB1*0404 (human); test: radioligand inhibition, purified HLA-DR
T13 chain 1: not shown
T13 chain 2: not shown

[11] = target: T14, HLA-DR molecule DRB1*0405 (human); test: radioligand inhibition, purified HLA-DR
T14 chain 1: not shown
T14 chain 2: not shown

[12] = target: T15, HLA-DR molecule DRB1*0701 (human); test: radioligand inhibition, purified HLA-DR
T15 chain 1: not shown
T15 chain 2: not shown

[13] = target: T16, HLA-DR molecule DRB1*0802 (human); test: radioligand inhibition, purified HLA-DR
T16 chain 1: not shown
T16 chain 2: not shown

[14] = target: T17, HLA-DR molecule DRB1*1101 (human); test: radioligand inhibition, purified HLA-DR
T17 chain 1: not shown
T17 chain 2: not shown

[15] = target: T18, HLA-DR molecule DRB1*1201 (human); test: radioligand inhibition, purified HLA-DR
T18 chain 1: not shown
T18 chain 2: not shown

[16] = target: T19, HLA-DR molecule DRB1*1302 (human); test: radioligand inhibition, purified HLA-DR
T19 chain 1: not shown
T19 chain 2: not shown

[17] = target: T20, HLA-DR molecule DRB4*0101 (human); test: radioligand inhibition, purified HLA-DR
T20 chain 1: not shown
T20 chain 2: not shown

## PPSMVAAGSVVAAVQ [Cyclin D1.199 (peptide 9019.0170)]
HLA-DR DRB1*0101 (human) [1]
  IC50: 6.8 nM
HLA-DR DRB1*0802 (human)
  IC50: 1400 nM
HLA-DR DRB1*1302 (human)
  IC50: 55 nM
HLA-DR DRB4*0101 (human) [2]
  IC50: 91 nM

## CHLFYNEQQEARGVH [Peptide 9019.0023]
HLA-DR DRB1*0101 (human) [3]
  IC50: 2490 nM
HLA-DR DRB1*0404 (human) [4]
  IC50: 3190 nM
HLA-DR DRB1*1201 (human) [5]
  IC50: 1860 nM
HLA-DR DRB3*0101 (human)
  IC50: 18900 nM
HLA-DR DRB4*0101 (human) [6]
  IC50: 5310 nM

## LLTFWNPPTTAKLTI [CEA.24 (peptide 9019.0105)]
HLA-DR DRB1*0101 (human) [1]
  IC50: 6.9 nM
HLA-DR DRB1*0404 (human) [7]
  IC50: 52 nM
HLA-DR DRB1*0701 (human)
  IC50: 3.7 nM
HLA-DR DRB1*1101 (human)
  IC50: 52 nM
HLA-DR DRB1*1201 (human) [8]
  IC50: 5000 nM
HLA-DR DRB5*0101 (human)
  IC50: 13 nM

## FYTLHVIKSDLVNEE [CEA.119 (peptide 9019.0114)]
HLA-DR DRB1*0301 (human)
  IC50: 80 nM
HLA-DR DRB1*0404 (human) [7]
  IC50: 169 nM
HLA-DR DRB1*0405 (human)
  IC50: 41 nM
HLA-DR DRB1*0701 (human)
  IC50: 56 nM
HLA-DR DRB4*0101 (human) [2]
  IC50: 22 nM
HLA-DR DRB5*0101 (human)
  IC50: 4500 nM

## HNQVRQVPLQRLRIV [Peptide 9019.0034 (Her2/neu.88)]
[9]
  IC50: 840 nM
[10]
  IC50: 78 nM
[11]
  IC50: 1300 nM
[12]
  IC50: 80 nM
[13]
  IC50: 85 nM
[14]
  IC50: 21 nM
[15]
  IC50: 42 nM
[16]
  IC50: 270 nM
[17]
  IC50: 18 nM
